In patent US20130281922A1 (KANCERA, published 2013):

Biological target: T1, human ROR1 on cells (human, UniProt Q01973 30-937)
T1 construct: whole, on cells
Assay: Scatchard plot of 125I-labelled 009-G03 binding to RPMI-8226 cells, 2.5 h on ice
Protocol: Antibody was labelled with ¹²⁵I using free Iodine and test tubes pre-coated with the oxidant reagent Iodogen (1,3,4,6-tetrachloro-3α,6α-diphenylglycoluri, Thermo scientific), according to manufactures instruction. Briefly 200 μg of antibody was labeled for 10 minutes in PBS and free iodine were removed using a small disposable desalting columns (NAP 5, GE Healthcare Life science). […] 0.5×10⁶ cells were incubated for 2.5 h on ice with different concentrations of ¹²⁵I-labelled 009-G03 antibody. Free nonbinding antibody (F) was separated from cell bound antibody (B) by centrifugation through a 40% Ficoll-cushion and samples were analysed in a gamma counter (FIG. 29).

T1 sequence (Q01973 30-937): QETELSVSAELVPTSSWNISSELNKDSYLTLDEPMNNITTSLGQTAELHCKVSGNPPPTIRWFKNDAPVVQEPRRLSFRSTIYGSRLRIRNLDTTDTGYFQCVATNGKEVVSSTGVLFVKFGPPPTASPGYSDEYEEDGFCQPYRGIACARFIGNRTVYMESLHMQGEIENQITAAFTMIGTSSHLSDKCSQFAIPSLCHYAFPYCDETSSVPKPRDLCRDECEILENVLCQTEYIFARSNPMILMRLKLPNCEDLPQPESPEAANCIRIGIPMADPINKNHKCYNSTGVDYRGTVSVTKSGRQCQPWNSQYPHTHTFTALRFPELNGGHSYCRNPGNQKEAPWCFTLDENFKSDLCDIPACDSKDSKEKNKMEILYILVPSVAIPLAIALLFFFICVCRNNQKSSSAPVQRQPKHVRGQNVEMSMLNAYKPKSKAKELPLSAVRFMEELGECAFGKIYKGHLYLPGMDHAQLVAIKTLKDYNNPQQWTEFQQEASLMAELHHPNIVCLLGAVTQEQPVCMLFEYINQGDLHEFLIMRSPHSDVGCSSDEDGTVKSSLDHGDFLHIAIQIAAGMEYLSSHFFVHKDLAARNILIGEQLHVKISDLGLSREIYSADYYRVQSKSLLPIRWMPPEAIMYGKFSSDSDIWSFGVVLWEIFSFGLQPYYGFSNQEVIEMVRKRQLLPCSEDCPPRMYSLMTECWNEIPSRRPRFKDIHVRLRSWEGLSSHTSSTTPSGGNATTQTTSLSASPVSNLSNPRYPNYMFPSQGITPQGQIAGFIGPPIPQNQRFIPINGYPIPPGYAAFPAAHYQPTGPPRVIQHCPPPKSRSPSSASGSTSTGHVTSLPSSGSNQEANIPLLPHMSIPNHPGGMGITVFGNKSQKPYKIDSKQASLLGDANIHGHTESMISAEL

- Kd: 1 nM
B1: ROR1-009-G03 (antibody, V domains shown)
VH: EVQLLESGGGLVQPGGSLRLSCAASGFTFSDYYMSWIRQAPGKGLEWVSAISGSGGSTYYADSVKGRFTISRDNSKNTLYLQMNSLRAEDTAVYYCAKEDWEGASFDYWGQGTLVTVSS
VL: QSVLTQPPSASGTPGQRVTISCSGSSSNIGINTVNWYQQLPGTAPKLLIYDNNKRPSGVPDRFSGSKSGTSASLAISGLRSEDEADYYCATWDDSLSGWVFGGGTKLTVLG
notes: also called ROR 009 G03; ROR1 specific mAb 009-G03
